From patent US6861234B1, “Method of epitope discovery” (MannKind Corporation, priority 2000, dated 2005) come the findings set out here.

In the assay the target is HLA-A2.1 (Homo sapiens, UniProt P04439, D140Y/D185E/D98H/E176V/E277Q/G131W/G231S/I119V/I121R/I166T/I218V/L300P/L318F/N151K/N90K/P208A/P217A/Q86G/Q94H/R138H/R169H/T345S). Description: T2 cell HLA-A2.1 stabilisation (peptide binding) assay by flow cytometry, method of Stauss et al. The conditions noted are these: T2 cells, β2 microglobulin 5 μg/ml, peptides at 100, 10, 1 and 0.1 μg/ml, 4 hours 37° C., W6/32 + FITC anti-mouse IgG, FACScan; FIG. 3. Format: cell-based. From the text: The epitope is synthesized and tested for its ability to bind a MHC receptor. For example, in one preferred assay, cells displaying the MHC I receptor can be used to measure the binding affinity of candidate peptides labeled with a radionuclide. Another preferred approach measures the ability of a peptide to bind to an MHC I receptor using a cell culture-based assay. In this assay, cells lacking transporters associated with antigen processing (TAP) are used to determine whether or not a candidate peptide has the ability to bind to the MHC I receptor. […] When the cell is flooded with exogenous peptide that can bind to the MHC I cleft, expression of the receptor is restored. This can be monitored by several means such as RIA, FACS, and the like. Using TAP^− cells, one of skill in the art can screen large numbers of potential candidate peptides for receptor binding without having to perform detailed binding affinity analysis.
Binding of a candidate epitope to HLA-A2.1 was assayed according to the method of Stauss et al., (Proc Natl Acad Sci USA 89(17):7871-5 (1992)). […] Peptides were added at 100, 10, 1 and 0.1 μg/ml. The plate was rocked gently for 2 minutes and then incubated for 4 hours in a 5% CO2 incubator at 37° C. After the unbound peptide was removed by washing twice with IMDM, a saturating amount of monoclonal antibody W6/32 (Sigma) was added. […]
In general terms: A flow cytometer gives signals particle by particle.

Turning to “FLPWHRLFLL (Homo sapien) [tyrosinase 207-216]”, the “binding to HLA-A2.1 (surface HLA-A2.1 molecules stabilized by peptide binding, fluorescence)” value is reported as “bind HLA-A2.1 to a similar extent as the known A2.1 binder FLPSDYFPSV”.
